From article PMC7205462 (eLife, 2020)
Where no end group is shown, it is not given here. fluorescein = fluorescein (from 5-iodoacetamide fluorescein) label on the Cys side chain

Key:
TmrAB = target: T1, TmrAB (Thermus thermophilus, UniProt Q72J04+Q72J05, Q72J05:E523Q); assay: biochemical
T1 construct: gene TT_C0976

[1] = target: Thermus thermophilus multidrug resistance transport complex TmrAB, wildtype (Thermus thermophilus)
[2] = target: TmrA^E523QB (Thermus thermophilus)
[3] = target: TmrA^E523QB (Thermus thermophilus); remark: listed apart in the source
[4] = target: TmrA^E523QB (Thermus thermophilus); conditions: scale: translocated peptides per TmrA^EQB complex
[5] = target: TmrA^E523QB (Thermus thermophilus); assay: radioligand binding; SPA time course at 20 °C; TmrA^EQB (0.2 µM) first converted to the OF state with Mg2+-ATP (5 min, 45 °C), excess ATP removed by rapid gel filtration, then R9LQK (10 µM, traced with 3H-R9L); mono-exponential fit; apparent
[6] = target: Thermus thermophilus multidrug resistance transport complex TmrAB, wildtype (Thermus thermophilus); assay: radioligand binding; scintillation proximity assay (SPA), equilibrium; His-tagged TmrAB (0.2 µM) in lipid nanodiscs held on copper-chelated SPA beads; R9LQK traced with 3H-R9L; no nucleotide (IF conformation); 20 °C; background with 200 mM imidazole; one-site binding model

Q: For `Nc1ncnc2c1ncn2[C@@H]1O[C@H](COP(=O)(O)OP(=O)(O)OP(=O)(O)O)[C@@H](O)[C@H]1O` [ATP], which EC50 (TmrAB) is on record?
A: 30 µM

Q: How did the transported C4F peptides with ATP against the background control with ADP; single-liposome flow cytometry (30 µM C4F, 3 mM Mg2+-ATP or Mg2+-ADP, 5 min at 45 °C) [1] turn out when RRYC(fluorescein)KSTEL (also: fluorescein attached via 5-iodoacetamide fluorescein) [C4F peptide (RRYC^fluoresceinKSTEL)] was run?
A: 100 fold

Q: What about the C4F peptides transported per liposome in the burst phase (0–5 min at 45 °C) of a time course; single-liposome flow cytometry (30 µM C4F, 3 mM Mg2+-ATP) (peptides per liposome) [2] of the same molecule?
A: 30

Q: And the C4F peptides translocated per correctly oriented TmrA^EQB upon each IF-to-OF transition; single-liposome flow cytometry (30 µM C4F, 3 mM Mg2+-ATP, two consecutive switches) (peptides per correctly oriented TmrA^EQB) [3]?
A: 1.3

Q: What about the translocated C4F peptides per TmrA^EQB complex; single-turnover transport into proteoliposomes (50 µM C4F, 3 mM Mg2+-ATP, 5 min at 45 °C), fluorescence read-out [4] of the same molecule?
A: 0.5

Q: Which apparent association rate kon (recovery of peptide binding along the OF-to-IF return) [5] does the source give for RRYQKSTEL [R9LQK peptide (…)] here?
A: 0.03 min⁻¹

Q: And the half-life of the recovery of peptide binding [5]?
A: 24 min

Q: And the Kd [6]?
A: 70 µM
